Assay results published in patent publication US20220403025A1 (GAMMADELTA THERAPEUTICS, published 2022).

Biological target: Vδ1 γδ T cell receptor on skin-derived γδ T cells (human)
Assay: cell-based or functional assay

Binder	Killing assay (EC50 µg/ml - 2 or 3 donors)	T cell degranulation (EC50 µg/ml - 3 donors)
1252_P01_C08 (IgG1) (antibody, V domains shown) VH: EVQLLESGGGLVQPGRSLRLSCAASGFTVSSNYMSWVRQAPGKGLEWVSVIYSGGSTYYADSVKGRFTISRDNSKNTLYLQMNSLRAEDTAVYYCASPIELGAFDIWGQGTLVTVSS VL: SSYELTQPPSVSVAPGKTARITCGGNNIGSQSVHWYQQKPGQAPMLVIYYDSDRPSGIPERFSGSNSGNTATLTISRVEAGDEADYYCQVWDSSSDHVVFGGGTKLTVL	0.02 µg/mL	
1139_P01_E04 (IgG1) (antibody, V domains shown) VH: QVQLQQSGPGLVKPSQTLSLTCAISGDSVSSNSAAWNWIRQSPSRGLEWLGRTYYRSKWYNDYAVSVRSRITINPDTSKNQFSLQLNSVTPEDTAVYYCARSWNDAFDIWGQGTTVTVSS VL: DIVMTQSPSTLSASIGDRVTITCRAGQSISTWLAWYQQKPGKAPKLLIYDASSLESGVPLRFSGSGSGTDFTLTISSLQPEDFATYYCQQSYSTPLTFGGGTKVEIK		0.005 µg/mL
1245_P01_G09 (IgG1) (antibody, V domains shown) VH: QVQLQQSGPGLVKPSQTLSLTCAISGDSVSSNSAAWNWIRQSPSRGLEWLGRTYYGSKWYNEYALSVKSRIIINPDTSKNQFSLQLNSVTPEDTAVYYCARDYYYSMDVWGQGTLVTVSS VL: DIVMTQSPSTLSASIGDRVTITCRAGQSISTWLAWYQQKPGKAPKLLIYDASSLESGVPLRFSGSGSGTEFTLAISSLQPDDFATYYCQQSYSTPVTFGQGTKVEIK		0.001 µg/mL
1245_P02_G04 (IgG1, made in HEK) (antibody, V domains shown) VH: QVQLQQSGPGLVKPSQTLSLTCAISGDSVSSKSAAWNWIRQSPSRGLEWLGRTYYRSKWSTDYAASVKSRITINPDTSKNQLSLQLNSVTPEDTAVYYCARTWSGYVDVWGQGTLVTVSS VL: DIQMTQSPPALSASVGDRVTITCRASQDINDWLAWYQHKPGKAPKLLIYDASSLESGVPSRFSGSGSGTEFTLTISSLQPDDFATYYCQQSYSTPQVTFGQGTRLEIK	0.1 µg/mL	0.002 µg/mL
1245_P01_G06 (IgG1) (antibody, V domains shown) VH: QVQLVESGGGLVKPGGSLRLSCAASGFTFSDYYMSWIRQAPGKGLEWVSYISSSGSTIYYADSVKGRFTISRDNAKNSLYLQMNSLRAEDTAVYYCARHSWNDAFDVWGQGTLVTVSS VL: not shown		0.001 µg/mL
1245_P01_E07 (IgG1) (antibody, V domains shown) VH: QVQLVESGGGLVKPGGSLRLSCAASGFTFSDYYMSWIRQAPGKGLEWVSYISSSGSTIYYADSVKGRFTISRDNAKNSLYLQMNSLRAEDTAVYYCARVDYADAFDIWGQGTLVTVSS VL: DIQMTQSPSSLSASVGDRVTIACRAGQSIGTYLNWYQQKPGKAPKLLIYVASSLQSGVPSRFSGSGSGTEFTLTISSLQPEDFATYYCQQSYSTLLTFGRGTKVEIK	0.06 µg/mL	
